Biological target: prototypic SARS-CoV-2 RBD (residues 319-541) (SARS-CoV-2, prototype (GISAID …, UniProt P0DTC2))
Assay: SPR
Conditions: both partners purified

B1: S304 antibody (IgG1) (antibody, V domains shown)
VH: EVQLVESGGGLVQPGGSLRLSCAASGFTFSSYDMHWVRQTTGKGLEWVSTIGTAGDTYYPDSVKGRFTISREDAKNSLYLQMNSLRAGDTAVYYCARGDSSGYYYYFDYWGQGTLLTVSS
VL: DIQMTQSPSSLSAAVGDRVTITCRASQSIGSYLNWYQQKPGKAPKLLIYAASSLQSGVPSRFSGSGSGTDFTLTISSLQPEDFAIYYCQQSYVSPTYTFGPGTKVDIK
notes: IgG1
Kd: 5.61 nM
